Literature values, collected in PMC2880562.

Target: Arginine repressor ArgR (trimer) (Escherichia coli) (UniProt P0A6D0)
Test: analytical ultracentrifugation

Kd: < 2.5 nM
Substance: Arginine repressor ArgR (trimer) (from UniProt P0A6D0)
